Measured values published in the supplement of paper PMC9170038.

Test system: MS2 coat protein
Test: apparent KD of MS2 coat protein; designed switch direction (-1 OFF switch, 1 ON switch): -1; higher = weaker reporter binding
In short: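 Stalled E. coli RNA polymerase transcribed designed RNA switches on Illumina chips, which were then titrated with SNAP-549-labelled MS2 coat protein, doubling from 0.7 or 1.5 nM to 3 µM. Steps lasted from 0.8–1.5 h at the lowest concentration to 10–20 min at the highest. The apparent KD is each design's median over clusters of curve-fitted normalised fluorescence.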

[1] = Eterna round: R95, input ligand: FMN 200 uM
[2] = Eterna round: R95, input ligand: microRNA oligo, concentration not stated
[3] = Eterna round: R95, input ligand: none
[4] = input ligand: microRNA oligo, concentration not stated

Row | Sequence | apparent KD of MS2 coat protein (input ligand: FMN 200 uM) [nM] | apparent KD of MS2 coat protein (input ligand: none) [nM] | apparent KD of MS2 coat protein [1] [nM] | apparent KD of MS2 coat protein [2] [nM] | apparent KD of MS2 coat protein [3] [nM] | apparent KD of MS2 coat protein [4] [nM]
1 | ACGAUUGUAGGAUAUACUUGGAGAGUGUUCACAUAUUAACGACAUGAGGAUCACCCAUGUAGAAGGGCAAUCGG [Eternabot (L1) Solution 22] (Eterna round: R97, puzzle: Exclusion 2) | 174 | 421 |  |  |  | 
2 | UAGGUGUGAGGAUAUGGUAAAGAUAAGAUGAUGAAAGAACUCCAGAAGGCACAUGAGGAUCACCCAUGUAGAUA [Mat - Exclusion 4 - Mod of JL - D31] (puzzle: Exclusion 4) |  |  | 34.9 | 20 | 20.5 | 
3 | GAUACACAUGAGGAUCACCCAUGUGAGGAUAUGAUACUAUGUACUUCGGUACAUAGUAUCAGAAGGCACAUUGA [Ex1-3: 44] (puzzle: Exclusion 1) |  |  |  | 61.2 |  | 
4 | UCAUAGUGAGGAUAUCGGUCCCUGACAAAUAGUUGGGUUAUUGAGAAGGCACAUGAGGAUCACCCAUGUGUCCG [EX4 C.5] (Eterna round: R97, puzzle: Exclusion 4) | 19.7 | 13.5 |  |  |  | 
5 | CGUGACUGAGGAUAUCUAUAAUAUCACAUGAGGAUCACCCAUGUCCAGCGAAAGCUGGAGGGAGAAGGCAGUCACG [Fiskers Ex 5 - 29] (puzzle: Exclusion 5) |  |  | 53 | 127 | 75.3 | 
6 | CAAAAGGGAGGAUAUACUUGAGGAUCACCCAAGUAAUCGGGUCAAAGAUACCAAGCAGGUAGAAGGCCCAAAUA [Teedleveer] (Eterna round: R97, puzzle: Exclusion 3) | 91.5 | 84.7 |  |  |  | 
7 | CUAUUACGAGGAUAUGAUUUAAAUAACAUGAGGAUCACCCAUGUUUUUACGUUAUUUUAUUUAGAAGGCGUAUUGU [JR_E5_Sub028] (puzzle: Exclusion 5) |  |  | 34.1 | 53.7 | 61.5 | 
8 | GGCUCGCCUCACAUGAGGAUCACCCAUGUACAAAACAAGAGGCAGGAUAUGGGCCGCGCAGCGGGCCAGAAGGGCCGCAUGGGU [Edsodidige] (Eterna round: R96, puzzle: Exclusion NG 3) | 62.9 | 113 |  |  |  | 67.7
9 | GGUACUAACACGAGAGUGUUAGUACAAUAAGCUUGUGUUACAUGAGGAUCACCCAUGUCCUCAUAAGCUCGUCUUAU [Mat - Sensor v3 - Turn-off var 2 - D57] (puzzle: Sensor v3, turn-off variant 2) |  |  | 107 | 30.8 | 124 | 
10 | CCUCGAAGGCAAGGAUAUCCUACAUUGUUCUGGCCCGGGCAUGCUACAUGAGGAUCACCCAUGUGGGAGAAGGUGCGCCACGGC [Design 30] (Eterna round: R96, puzzle: Exclusion NG 2) | 56.7 | 58.3 |  |  |  | 45
11 | UUUACAAGCUUUAGAUCCCACAUGAGGAUCACCCAUGUUCCUGGCCGUGAGGCUAGGUAAACUAAUGCUCGUCUUAU [JL TOV1 3.65] (Eterna round: R97, puzzle: Sensor, turn-off variant 1) | 197 | 244 |  |  |  | 
12 | CCAAGAAUAGGAUAUACAACAUGCCAGCUUCUUUACAUCGCACAUGAGGAUCACCCAUGUAGAAGGGUUCUCUG [Exclusion-2-#15] (Eterna round: R97, puzzle: Exclusion 2) | 182 | 209 |  |  |  | 
13 | AACUGGACAGGAUAUGUUCUUGAGCACUUGAGGAUCACCCAAGUCAUCAAGAACUCAGGCACAGAAGGGUUUAUGA [jl-ex5.4.60 ViennaUCT mod] (Eterna round: R97, puzzle: Exclusion 5) | 28.9 | 13.4 |  |  |  | 
14 | AUGAAGUAAGGAUAUUAUCGCGGGCAGAGGCCCAGCUCAUAUGAGAAGGUACAUGAGGAUCACCCAUGUCCUCU [Eternabot (L2) Solution 72] (Eterna round: R97, puzzle: Exclusion 4) | 25.9 | 30 |  |  |  | 
15 | CUAUGUUAGCAGGAUAUGCCAUUAUUCCUUUACGCAGAAGGGCUUACAUGAGGAUCACCCAUGUUACAUUUCAU [JR_E6_Sub084] (puzzle: Exclusion 6) |  |  |  | 15.7 |  | 
16 | ACAAGCUUUUUGUUCGUCUUAUACACUCCUAAUAAGACAACAUGAGGAUCACCCAUGUAACAAAUAAGAACUCAUGU [Sesor Array 5 - Jieux - Sensor v3, turn-off variant 2] (puzzle: Sensor v3, turn-off variant 2) |  |  | 75 | 293 | 90.2 | 
17 | UUUAUGCUAGGAUAUGCACCCUCGAACAUGAGGAUCACCCAUGUACAAUAAACGCAUGGAGCAGAAGGAGCUCCGA [EX5 A.5] (Eterna round: R97, puzzle: Exclusion 5) | 203 | 86.7 |  |  |  | 
18 | GCCUGUGAAGGAUAUACAUGAGGAUCACCCAUGUGGCGGAUAUACCCGCCGAGACCGUGUAGAAGGUCAUAGUA [Xezauser] (puzzle: Exclusion 3) |  |  |  | 36.1 |  | 

Row | Sequence | apparent KD of MS2 coat protein (input ligand: FMN 200 uM) [nM] | apparent KD of MS2 coat protein (input ligand: none) [nM] | apparent KD of MS2 coat protein [1] [nM] | apparent KD of MS2 coat protein [2] [nM] | apparent KD of MS2 coat protein [3] [nM] | apparent KD of MS2 coat protein [4] [nM]
19 | CUUAGCCUAAAAUCACGCAAGCUUCUUGCUUGUCUUAAGACAUGAGGAUCACCCAUGUCCGGGCUGAACUUAUGGAA [Enonzave] (puzzle: Sensor v3, turn-off variant 2) |  |  | 17.8 | 21.1 | 17.4 | 
20 | GCAUGUUGGUAGGAUAUGCAGCGGAAACCGCUAGUAGAAGGAUUGACAUGAGGAUCACCCAUGUGAACCGAAGG [Arcelace] (Eterna round: R97, puzzle: Exclusion 6) | 186 | 40.4 |  |  |  | 
21 | UUACAGCAAGGAUAUACAUGAGGAUCACCCAUGUAUGCAUGUUCGAGAGAGGCCUACGGUAGAAGGUGCAUGUU [EX3 C.11] (Eterna round: R97, puzzle: Exclusion 3) | 25.2 | 39.8 |  |  |  | 
22 | ACCAUGUCAGGAUAUGCCCGUGUUCGAUCCGAGAAACACGAGCAGAAGGGACAUGAGGAUCACCCAUGUCCAAG [Eternabot (Original) Solution 1] (Eterna round: R97, puzzle: Exclusion 4) | 45.2 | 16.2 |  |  |  | 
23 | UACAUGAGGAUCACCCAUGUUUUGUCGUGUAUGGUAUUUAUCUAGGAUAUCAAGUUAUUUGUUUAUGAGAAGGAGAAUAUUAAU [JMF's solution 33] (Eterna round: R96, puzzle: Exclusion NG 3) | 37.1 | 37.1 |  |  |  | 26.1
24 | GGGUAGUGAGGAUAUCGUUGUUAGGAGGAGUAGGUAGGAGGCGAGAAGGCACAUGAGGAUCACCCAUGUAUGAG [JR_Exclu4_Sub065] (puzzle: Exclusion 4) |  |  |  | 25.5 |  | 
25 | AUGCUCCGUGUAGGAUAUCGCCGCACCACCCGGCGAGAAGGACAUGAGGAUCACCCAUGUAUGUUAUUAUCACGUGUGGCGCGC [Design 42] (Eterna round: R96, puzzle: Exclusion NG 1) | 17.2 | 13.6 |  |  |  | 12.3
26 | AAUAACAGAGGAUAUACUGUUUUAUGUGUUUGUUGUUUUAAACAUGAGGAUCACCCAUGUAGAAGGCUGAAUGA [JMF 60] (puzzle: Exclusion 2) |  |  |  | 21.8 |  | 
27 | CAGUACUGAGGAUAUACAUGAGGAUCACCCAUGUGUCCCUGCUAGGAAACUAGCAAUAGUAGAAGGCAGUACUG [Fiskers Ex 3 828 mod 4] (puzzle: Exclusion 3) |  |  |  | 17 |  | 
28 | CAAUUCAGAGGAUAUGCGCAUAGAUAAGACUUUUUUUCUUAACAUGAGGAUCACCCAUGUAGAAGGCUGUAAAC [Ex2 #62] (Eterna round: R97, puzzle: Exclusion 2) | 16.5 | 16.8 |  |  |  | 
29 | GAUUAUGCGAGCUUUAGGGACAUGAGGAUCACCCAUGUUCGUCUUAUUAGUCUAGGUACACUGACAUACCUAAAUCU [JMF 67] (puzzle: Sensor v3, turn-off variant 1) |  |  | 22.7 | 33.1 | 23.6 | 
30 | GGUCCGCAUGUCAGGAUAUACAUAUGGAUCAUAGAGUAGAAGGGACUUGAGGAUCACCCAAGUAACAAAAGAAG [Tiantere] (Eterna round: R97, puzzle: Brourd's mod of Exclusion 4) | 60.1 | 21.3 |  |  |  | 
31 | GAAUAGCGAGGAUAUACAUGAGGAUCACCCAUGUGAUCCUUAGGCUGUUCAAGCCAAUGUAGAAGGCGCAAAUU [jl-ex3.4.58 ViennaUCT mod] (Eterna round: R97, puzzle: Exclusion 3) | 76.6 | 129 |  |  |  | 
32 | CCAUGUCCAGAGGAUAUGUAGCGGAUAACCGCAACAGAAGGCUGGACAUGAGGAUCACCCAUGUGCGCCUUCCA [Vege] (Eterna round: R97, puzzle: Exclusion 6) | 313 | 534 |  |  |  | 
33 | UUAUAUAGUGUGAGGAUAUGCUGGUCCUUGGAUCAGCAGAAGGCACAUGAGGAUCACCCAUGUAGUUAAAUAUA [Mat - Exclusion 4 - JL Mod - D18] (puzzle: Brourd's mod of Exclusion 4) |  |  | 252 | 31.1 | 39.5 | 
34 | UGCAUGCUAGGAUAUACGGGACAUUAGGGUUCGUCGUGUGGACAUGAGGAUCACCCAUGUAGAAGGAGCGUGCU [Mod3 of JL-ex2-2.15 mat747 mod] (puzzle: Exclusion 2) |  |  |  | 78.2 |  | 
35 | UGCGAGUAAGGAUAUUCGCGACCGCCCACAAGGGCAGUCGAGAAGAAGGUACUUGAGGAUCACCCAAGUCCUAA [Quondius] (Eterna round: R97, puzzle: Exclusion 4) | 89.8 | 20.8 |  |  |  | 
